Common to all, as to experiment: EMSA
On the technique in general: Mobility shift assays separate free from complexed probe on a gel.

The target of data set [1] is RNAP core enzyme (alpha2 beta beta' omega);sigmaA (Mycobacterium tuberculosis (H37Rv for …, UniProt P9WGZ1;P9WGY9;P9WGY7;P9WGY5;P9WGI1 1-347;1-1178;1-1316;1-110;1-528, |)).
Data set [2] concerns the target T1, RNAP core enzyme (alpha2 beta beta' omega);sigmaA;RbpA (Mycobacterium tuberculosis (H37Rv for …, UniProt P9WGZ1;P9WGY9;P9WGY7;P9WGY5;P9WGI1;P9WHJ5 1-347;1-1178;1-1316;1-110;1-528;1-111, ||)).
The target of data set [3] is E. coli RNAP core enzyme;sigmaA (Escherichia coli;Mycobacterium …, UniProt P0A7Z4;P0A8V2;P0A8T7;P0A800;P9WGI1 1-329;1-1342;1-1407;1-91;1-528, |).
Data set [4] concerns the target T1, RNAP core enzyme (alpha2 beta beta' …). The source holds these as a separate data set.

Read-outs that look alike come from different tables or passages of the source.

B1: rrnAP3 promoter fragment (150 bp) (dsDNA)
DNA 1: ATCGAACGGGTATGCTGTTAGGCGACGGTCACCTATGGATATCTATGGATGACCGAACCTGGTCTTGACTCCATTGCCGGATTTGTATTAGACTGGCAGGGTTGCCCCGAAGCGGGCGGAAACAAGCAAGCGTGTTGTTTGAGAACTCAA
DNA 2: TTGAGTTCTCAAACAACACGCTTGCTTGTTTCCGCCCGCTTCGGGGCAACCCTGCCAGTCTAATACAAATCCGGCAATGGAGTCAAGACCAGGTTCGGTCATCCATAGATATCCATAGGTGACCGTCGCCTAACAGCATACCCGTTCGAT
Consider B1, for which the binding result in data set [1], in data set [2] and in data set [3] was “binds” throughout.

B2: sinP3 promoter fragment (127 bp) (dsDNA)
DNA 1: TTTAAACAAAAAGTCTGCTCATCCTGGTCCGGCAGCCAGAAGTCATACCGTAAATCCTTTCTGAATGTGCTATAATATCACAAGGAAGGTGATGACATTGATTGGCCAGCGTATTAAACAATACCGT
DNA 2: ACGGTATTGTTTAATACGCTGGCCAATCAATGTCATCACCTTCCTTGTGATATTATAGCACATTCAGAAAGGATTTACGGTATGACTTCTGGCTGCCGGACCAGGATGAGCAGACTTTTTGTTTAAA
In the case of B2, the binding result in data set [4] is “binds”.
